Reference: article PMC2552378

Experiments:
Experiment in all cases: purified protein
purified protein [1] = substrate: NCCO; format: biochemical, Trypanosoma brucei; conditions: 5 mM ATP, 6 mM MgCl2, 150 mM KCl, 50 mM Mops pH 7.8
purified protein [2] = substrate: C[N+](C)(C)CCO; format: biochemical, Trypanosoma brucei; conditions: 5 mM ATP, 6 mM MgCl2, 150 mM KCl, 50 mM Mops pH 7.8
purified protein [3] = substrate: Nc1ncnc2c1ncn2[C@@H]1O[C@H](COP(=O)(O)OP(=O)(O)OP(=O)(O)O)[C@@H](O)[C@H]1O; conditions: 6 mM MgCl2, 150 mM KCl, 50 mM Mops pH 7.8

B1: TbC/EK2 (Trypanosoma brucei brucei TREU927) (protein)
chain: MALRPFPLGNTPLHAVIRRSAREFECVEAVPASNAVRSPSTASWVSAESLDSIISLANRTSEEMEVDQLIYRLCRSLYHVAKKKSAQIHCHPNHQERQQQQQQASSSGWRSVECEGHFSNMRGREDWCPLLHLFDPRSYYKVMGQPSQHDGCKLCGDVVGTESSPEGVSQWLMSELSVTRLTGGNSNHVYRLGHASFPKKAVLLRVYGDGGGGDVIDRARDIKVMRLMSKSEMGPGLLHTFHWGRVEEFMDGVLTCTTEKLLTSPSLLADVYGGLSKMHQLDYTPLLPENMRTKGMSNGHNSSQSVSDTVSKSGGGQEGPDGTVGGVNELESTCHTSFERVCLRLLRLVSLNVVEEHRHSLESWLAGEVMFVRRELQYRGIPVVLSHNDLNPGNILLSDGAGEASGTVFSDEELRVENTPLSKRYVTRKGKNMNLVERRGFLFIDFEYADANYRCFDLGNTLCELDYDYTRGTEAGGRGFIKYLFVFPPPAMEEAWRGLGEEYPRMPELIYDAWRRGVCDGSSDIGSVALLAVRRYFAERDNVPLETVELSEAQVGEVLLGMLASHLYWTIWSMTMGSAPDNCVECEDCDDQMFAVGGSGLDYMRYGECRLREYIALRGWLAEKGLLS
Km (purified protein [1]): 2560 ± 310 µM | kcat (purified protein [1]): 12.91 s⁻¹ | kcat/Km (purified protein [1]): 5040 M⁻¹ s⁻¹ | Km (purified protein [2]): 31.4 ± 2.6 µM | kcat (purified protein [2]): 12.91 s⁻¹ | kcat/Km (purified protein [2]): 411000 M⁻¹ s⁻¹ | Km (purified protein [3]; 2 mM choline): 20.6 ± 1.96 µM | kcat (purified protein [3]; 2 mM choline): 12.91 s⁻¹ | kcat/Km (purified protein [3]; 2 mM choline): 627000 M⁻¹ s⁻¹

B2: TbEK1 (formerly TbC/EK1) (Trypanosoma brucei brucei TREU927) (protein)
chain: MEVAVGHVRHVPCTVPDDPASRMRAIREIVARHCALFMQKGGDVGRSQCASNLGNNITSGTSNGFDADRLQVVAFSGGITNEMYHVYCEGWEAHSVVMRIFGKETERVISRGDELFYQSLFIPTYVRGQNFLVYQYLYQYEPLPFVEMVKEYEKIARGIAFFHVRATLEARSDYSVTPVGGVVGAGGATVGPTNTCSRFDLEENYIVHSLTEWVEQALSETVQEKVDATKRATYASVAQQLKEEAQWLLPLMQRHSPELGESTCHNDLLSGNIMRQKSDGALKIIDFEYAKRNYFLFDIANHFNEYTGLECDYATYFPSEEHMKKFVTTYMCAMREELEKHAEEAKRRQLTDIIPGQQHFFMCDVGGVEGDKRIHRMVQLVKLLTLASHLSWSVWALLQEAVSKTDMDFLRYSQLRLSRYLETRKEFSASS
Km (purified protein [1]): 18.4 ± 0.9 µM | kcat (purified protein [1]): 6.56 s⁻¹ | kcat/Km (purified protein [1]): 357000 M⁻¹ s⁻¹ | Km (purified protein [3]; 2 mM ethanolamine): 219.2 ± 29 µM | kcat (purified protein [3]; 2 mM ethanolamine): 6.56 s⁻¹ | kcat/Km (purified protein [3]; 2 mM ethanolamine): 29900 M⁻¹ s⁻¹
